{"source": "patent WO2018134389A1", "key": {"[1]": {"target": "DC-SIGN ECD immobilised on a streptactin-functionalised SPR surface (human) (UniProt Q9NNX6)", "sequence (Q9NNX6 59-404)": "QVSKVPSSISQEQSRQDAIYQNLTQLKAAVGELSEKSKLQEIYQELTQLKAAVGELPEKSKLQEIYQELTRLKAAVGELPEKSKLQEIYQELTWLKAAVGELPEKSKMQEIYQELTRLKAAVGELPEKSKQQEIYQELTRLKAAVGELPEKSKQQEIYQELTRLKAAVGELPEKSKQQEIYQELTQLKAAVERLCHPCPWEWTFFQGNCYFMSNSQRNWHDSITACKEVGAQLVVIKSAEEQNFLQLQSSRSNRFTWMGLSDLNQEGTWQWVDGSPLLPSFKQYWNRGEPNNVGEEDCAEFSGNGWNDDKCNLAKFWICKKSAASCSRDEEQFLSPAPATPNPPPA"}, "[2]": {"target": "DC-SIGN ECD immobilised on a streptactin-functionalised SPR surface (human) (UniProt Q9NNX6)", "remark": "listed apart in the source"}}, "note": "Where two headings read alike, the source gives them in different places.", "data": [{"substance": "CHO-derived recombinant CMV glycoprotein B (soluble recombinant HCMV gB), untreated (from UniProt P13201 25-907) (ligand)", "values": [{"measurement": "Kd", "setting": "[1]", "result": 0.014, "unit": "nM"}]}, {"substance": "HCMV gB treated with a(1-2,3,6)-mannosidase (from UniProt P13201 25-907) (ligand)", "values": [{"measurement": "Kd", "setting": "[2]", "result": 0.149, "unit": "nM"}]}]}
